Experimental data: patent US20140087995A1 (published 2014)
Numbered stars: 1 amine (or outer) side, 2 acyl side, 3 side chain; on linkers, the order of the positions; unused ones are H or OH. Bridge positions count the residues as written; N and C are the ends. Side chains are listed from the residue outwards. Ends that are not written are not given here. * marks the point of attachment. C20 diacid = O=C(O)CCCCCCCCCCCCCCCCCCC(=O)*; γGlu = O=C(O)[C@H](CCC(=O)[*:2])N[*:1]

What was measured:
human amylin receptor = target: T1, human amylin receptor (human, UniProt P30988 25-474; O60896 24-148, limits assumed); test: SPA radioligand competition (125I-rat amylin), membranes of BHK cells with human calcitonin receptor + RAMP-3
T1 construct: whole, on cells; Assay used cell membranes of the Amylin 3(a)/CRE-luc BHK cells; the complex is called the human amylin receptor; also called hAmylin-R; hAmylinR
T1 sequence (looked up) 1: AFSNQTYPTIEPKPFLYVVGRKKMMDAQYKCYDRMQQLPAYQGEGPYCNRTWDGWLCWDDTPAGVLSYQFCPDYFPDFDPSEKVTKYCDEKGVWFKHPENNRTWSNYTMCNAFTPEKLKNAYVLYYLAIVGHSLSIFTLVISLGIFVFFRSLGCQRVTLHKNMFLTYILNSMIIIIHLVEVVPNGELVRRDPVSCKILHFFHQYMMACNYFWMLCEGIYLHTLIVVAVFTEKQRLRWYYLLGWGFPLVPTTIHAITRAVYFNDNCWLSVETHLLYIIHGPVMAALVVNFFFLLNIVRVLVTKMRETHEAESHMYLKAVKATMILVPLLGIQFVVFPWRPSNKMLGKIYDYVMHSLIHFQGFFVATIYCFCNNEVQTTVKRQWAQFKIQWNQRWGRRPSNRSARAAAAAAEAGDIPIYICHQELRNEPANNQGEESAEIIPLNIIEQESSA
T1 sequence (looked up) 2: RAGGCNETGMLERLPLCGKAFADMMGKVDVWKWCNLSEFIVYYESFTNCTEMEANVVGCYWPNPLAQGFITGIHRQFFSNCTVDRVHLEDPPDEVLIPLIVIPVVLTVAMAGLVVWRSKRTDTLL
Method: The binding assay was performed using scintillation proximity assay (SPA) beads (RPNQ0001) from PerkinElmer and cell membranes from the Amylin 3(a)/CRE-luc cells (as described in Assay (II)) were used. Membranes were prepared in the following way; the cells were rinsed with PBS and incubated with Versene for approximately 5 min before harvesting. The cells were flushed with PBS and the cell-suspension was centrifuged for 5 min at 1000 rpm. Cells were homogenized (ultrathurrax) in a buffer containing 20 mM Na-HEPES and 10 mM EDTA (pH 7.4) and centrifuged at 20.000 rpm for 15 min. The resulting pellet was resuspended, homogenized and centrifuged (20.000 rpm, 15 min) in a buffer containing 20 mM Na-HEPES and 0.1 mM EDTA (pH 7.4, buffer 2). The resulting pellet was resuspended in buffer 2 and protein concentration was measured (BCA protein Assay, Pierce). The homogenate was kept cold during the whole procedure. The membranes were kept at −80° C. until use. The assay was performed in a 384 well Optiplate (PerkinElmer) in a total volume of 40 ul. Membranes were mixed with SPA beads. Final concentration of membranes 35 ng/μL final and SPA beads was 0.05 mg/well. Test-compounds were dissolved in DMSO and further diluted in assay buffer (50 mM Hepes, pH 7.4, 1 mM CaCl2, 5 mM MgCl₂, 0.1% OA and 0.02% Tween20). […] The final mixture was incubated with shaking at 400 rpm for 120 min at 25° C. prior to centrifugation (1500 rpm, 10 min). Samples were analyzed on TopCounter™ (Packard). The IC₅₀ was calculated using (one site binding competition analysis) GraphPad Prism5 as a measure of receptor affinity.

[1] = target: T2, human calcitonin receptor (human, UniProt P30988 25-474); test: ratio IC50 hCTR / IC50 hAmylin-R of the two SPA competition assays; reference: human amylin receptor
T2 construct: whole, on cells; Assay used cell membranes of the transfected BHK cells; also called hCTR; hCT
T2 sequence (looked up): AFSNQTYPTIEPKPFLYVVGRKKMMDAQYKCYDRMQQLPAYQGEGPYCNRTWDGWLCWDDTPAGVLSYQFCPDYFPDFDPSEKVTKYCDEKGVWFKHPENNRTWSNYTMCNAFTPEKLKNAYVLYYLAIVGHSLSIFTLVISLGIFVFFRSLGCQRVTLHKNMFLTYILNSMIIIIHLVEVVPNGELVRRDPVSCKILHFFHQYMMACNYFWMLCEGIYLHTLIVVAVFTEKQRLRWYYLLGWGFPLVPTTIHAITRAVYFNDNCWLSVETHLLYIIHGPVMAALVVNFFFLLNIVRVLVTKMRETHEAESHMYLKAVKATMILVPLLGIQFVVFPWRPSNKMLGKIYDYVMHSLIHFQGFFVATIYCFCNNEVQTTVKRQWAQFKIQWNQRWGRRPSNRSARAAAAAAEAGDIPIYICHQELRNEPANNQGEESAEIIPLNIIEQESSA
Method in brief: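 IC₅₀ values were derived by one-site competition analysis of SPA counts. Cell membranes (35 ng/μL) with SPA beads were incubated with test compounds for 120 min at 25° C in Hepes buffer, pH 7.4, containing CaCl2, MgCl₂, OA and Tween20.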

[2] = target: T2, human calcitonin receptor; test: SPA radioligand competition (125I-calcitonin), membranes of BHK cells with human calcitonin receptor
Method in brief: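 BHK hCTR membranes 35 ng/μL + SPA beads 0.05 mg/well; buffer 50 mM Hepes pH 7.4, 1 mM CaCl2, 5 mM MgCl₂, 0.1% OA, 0.02% Tween20. 120 min, 25° C., shaking. Scintillation count; IC50 by one-site binding competition.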

[3] = target: T3, human amylin receptor (amylin 3(a) receptor: human calcitonin receptor co-expressed with RAMP-3) (human, UniProt P30988 25-474; O60896 24-148); test: SPA competition binding, membranes of Amylin 3(a)/CRE-luc BHK cells, displacement of 125I-rat amylin (Assay V)
T3 construct: whole, on cells; functional assay (Assay IIa) used the whole cells; also called hAmylin-R; hAmylinR
T3 sequence (looked up) 1: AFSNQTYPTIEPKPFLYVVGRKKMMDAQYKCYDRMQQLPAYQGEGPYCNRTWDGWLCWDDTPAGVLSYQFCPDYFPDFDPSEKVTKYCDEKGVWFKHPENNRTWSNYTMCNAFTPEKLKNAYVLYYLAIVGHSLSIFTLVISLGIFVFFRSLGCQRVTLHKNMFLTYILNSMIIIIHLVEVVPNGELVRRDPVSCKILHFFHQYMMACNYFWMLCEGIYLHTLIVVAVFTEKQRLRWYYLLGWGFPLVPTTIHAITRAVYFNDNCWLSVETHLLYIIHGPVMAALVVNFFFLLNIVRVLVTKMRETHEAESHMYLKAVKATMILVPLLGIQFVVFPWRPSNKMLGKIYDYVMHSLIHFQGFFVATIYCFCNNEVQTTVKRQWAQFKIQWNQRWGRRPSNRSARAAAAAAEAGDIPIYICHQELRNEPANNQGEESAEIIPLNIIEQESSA
T3 sequence (looked up) 2: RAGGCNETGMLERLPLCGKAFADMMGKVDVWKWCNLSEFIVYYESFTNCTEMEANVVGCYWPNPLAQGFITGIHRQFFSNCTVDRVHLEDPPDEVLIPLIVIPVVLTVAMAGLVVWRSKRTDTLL
Method in brief: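 Cell membranes were prepared by homogenisation in Na-HEPES/EDTA buffer, pH 7.4, and stored at −80° C. They were then coupled to SPA beads at 35 ng/μL final and exposed to compounds in assay buffer containing CaCl2, MgCl₂, OA and Tween20. After 120 min at 25° C, plates were counted and IC₅₀ derived.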

[4] = target: T3, human amylin receptor (amylin 3(a) …); test: cell-based or functional assay
[5] = target: T4, human calcitonin receptor (human, UniProt P30988 25-474); test: cell-based or functional assay
T4 sequence (looked up): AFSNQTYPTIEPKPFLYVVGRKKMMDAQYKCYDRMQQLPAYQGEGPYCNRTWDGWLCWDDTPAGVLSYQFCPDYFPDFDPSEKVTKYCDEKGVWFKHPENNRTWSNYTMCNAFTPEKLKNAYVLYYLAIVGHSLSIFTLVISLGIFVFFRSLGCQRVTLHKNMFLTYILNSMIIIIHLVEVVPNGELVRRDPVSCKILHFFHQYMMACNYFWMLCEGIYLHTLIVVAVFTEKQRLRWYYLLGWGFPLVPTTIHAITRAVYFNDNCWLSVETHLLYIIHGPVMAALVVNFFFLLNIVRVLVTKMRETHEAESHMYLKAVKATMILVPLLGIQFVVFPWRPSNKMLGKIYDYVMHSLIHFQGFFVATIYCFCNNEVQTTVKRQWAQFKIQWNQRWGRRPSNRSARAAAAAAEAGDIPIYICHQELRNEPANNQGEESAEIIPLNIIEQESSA

[6] = target: T5, human amylin receptor (amylin 3(a) receptor: human calcitonin receptor with RAMP-3) (human, UniProt P30988 25-474; O60896 24-148, limits assumed); test: cell-based or functional assay
T5 sequence (looked up) 1: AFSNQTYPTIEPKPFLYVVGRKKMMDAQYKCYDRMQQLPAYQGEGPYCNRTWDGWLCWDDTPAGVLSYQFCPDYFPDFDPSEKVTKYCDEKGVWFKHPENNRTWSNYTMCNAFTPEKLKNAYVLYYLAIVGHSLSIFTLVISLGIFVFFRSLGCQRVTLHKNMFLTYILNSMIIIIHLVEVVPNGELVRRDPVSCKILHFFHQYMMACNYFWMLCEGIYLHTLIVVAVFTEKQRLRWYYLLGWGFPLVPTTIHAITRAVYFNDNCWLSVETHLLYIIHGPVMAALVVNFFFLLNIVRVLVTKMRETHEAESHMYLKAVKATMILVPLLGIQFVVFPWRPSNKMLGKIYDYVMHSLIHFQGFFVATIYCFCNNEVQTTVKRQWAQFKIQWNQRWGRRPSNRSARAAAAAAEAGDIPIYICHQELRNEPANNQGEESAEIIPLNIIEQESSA
T5 sequence (looked up) 2: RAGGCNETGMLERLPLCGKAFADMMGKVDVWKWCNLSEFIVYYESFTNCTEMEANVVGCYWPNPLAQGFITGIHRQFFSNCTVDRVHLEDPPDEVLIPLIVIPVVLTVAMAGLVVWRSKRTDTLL

[7] = target: T6, human calcitonin receptor (human, UniProt P30988 25-474); test: cell-based or functional assay; remark: listed apart in the source
T6 sequence (looked up): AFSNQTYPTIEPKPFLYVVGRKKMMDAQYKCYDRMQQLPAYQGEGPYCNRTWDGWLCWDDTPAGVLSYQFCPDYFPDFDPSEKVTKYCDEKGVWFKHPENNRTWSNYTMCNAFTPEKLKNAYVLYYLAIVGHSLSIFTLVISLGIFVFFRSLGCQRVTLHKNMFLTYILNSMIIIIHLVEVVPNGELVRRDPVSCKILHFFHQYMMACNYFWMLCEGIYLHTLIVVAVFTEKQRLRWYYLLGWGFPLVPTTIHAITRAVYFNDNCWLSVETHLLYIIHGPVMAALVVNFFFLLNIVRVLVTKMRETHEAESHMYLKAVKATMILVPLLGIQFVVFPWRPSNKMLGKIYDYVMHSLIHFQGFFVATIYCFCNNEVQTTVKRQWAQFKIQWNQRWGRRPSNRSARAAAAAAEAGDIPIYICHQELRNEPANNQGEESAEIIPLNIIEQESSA

B1: N^α1-[2-[2-[2-[[2-[2-[2-[[(4S)-4-carboxy-4-(19-carboxynonadecanoylamino)butanoyl]amino]ethoxy]ethoxy]acetyl]amino]ethoxy]ethoxy]acetyl]-[Arg17,Pro21,Pro27]-h-am … (peptide)
peptide: KCNTATCATQRLANFLRHSSPNFGAIPSSTNVGSNTY
modifications: C20 diacid-gGlu-2xOEG on the alpha amino group of the N-terminal residue (Lys1); disulfide Cys2-Cys7; C-terminal amide
notes: Synthetic analogue; also called compound 24
- IC50 (human amylin receptor): 1.14 nM
- Ratio hCT/hAmylin binding [1]: 90
- IC50 [2]: 102 nM

B2: N^ε1-[(4S)-4-carboxy-4-[[(4S)-4-carboxy-4-(19-carboxynonadecanoylamino)butanoyl]amino]butanoyl]-[Glu14,Arg17,Pro23,Pro34,Glu35]-h-amylin (peptide)
peptide: K([γGlu-γGlu-C20 diacid])CNTATCATQRLAEFLRHSSNNPGAILSSTNVGPETY-NH2
modifications: disulfide 2-7 (inferred)
notes: Synthetic acylated analogue of human amylin
- IC50 [3]: 1.19 nM
- hAmylin-R funct. EC50 (pM), CRE-luciferase reporter in BHK amylin 3(a) receptor cells [4]: 5170 pM
- Ratio hCT/hAmylin funct. (hCTR EC50 against hAmylin-R EC50) [5]: 17.3
- hCTR funct. EC50 (pM), CRE-luciferase reporter in BHK calcitonin (a) receptor cells [5]: 89600 pM

B3: N^ε1-[(4S)-4-carboxy-4-[[(4S)-4-carboxy-4-(19-carboxynonadecanoylamino)butanoyl]amino]butanoyl]-[Glu14,Arg17,Pro21,Pro27,Arg34]-h-amylin (peptide)
peptide: K([γGlu-γGlu-C20 diacid])CNTATCATQRLAEFLRHSSPNFGAIPSSTNVGRNTY-NH2
modifications: disulfide 2-7; N-terminus assumed
SMILES: CC[C@H](C)[C@H](NC(=O)[C@H](C)NC(=O)CNC(=O)[C@H](Cc1ccccc1)NC(=O)[C@H](CC(N)=O)NC(=O)[C@@H]1CCCN1C(=O)[C@H](CO)NC(=O)[C@H](CO)NC(=O)[C@H](Cc1c[nH]cn1)NC(=O)[C@H](CCCNC(=N)N)NC(=O)[C@H](CC(C)C)NC(=O)[C@H](Cc1ccccc1)NC(=O)[C@H](CCC(=O)O)NC(=O)[C@H](C)NC(=O)[C@H](CC(C)C)NC(=O)[C@H](CCCNC(=N)N)NC(=O)[C@H](CCC(N)=O)NC(=O)[C@@H](NC(=O)[C@H](C)NC(=O)[C@@H]1CSSC[C@H](NC(=O)[C@@H](N)CCCCNC(=O)CC[C@H](NC(=O)CC[C@H](NC(=O)CCCCCCCCCCCCCCCCCCC(=O)O)C(=O)O)C(=O)O)C(=O)N[C@@H](CC(N)=O)C(=O)N[C@@H]([C@@H](C)O)C(=O)N[C@@H](C)C(=O)N[C@@H]([C@@H](C)O)C(=O)N1)[C@@H](C)O)C(=O)N1CCC[C@H]1C(=O)N[C@@H](CO)C(=O)N[C@@H](CO)C(=O)N[C@H](C(=O)N[C@@H](CC(N)=O)C(=O)N[C@H](C(=O)NCC(=O)N[C@@H](CCCNC(=N)N)C(=O)N[C@@H](CC(N)=O)C(=O)N[C@H](C(=O)N[C@@H](Cc1ccc(O)cc1)C(N)=O)[C@@H](C)O)C(C)C)[C@@H](C)O
notes: also called compound 88
- hAmylin-R funct. EC50 (pM) [6]: 773 pM
- Ratio hCT/hAmylin funct. [7]: 8.5 ratio
